Measurements as given in US20030119735.

Key:
[1] = system: T1, H-βAla-Arg-Arg-Met-Lys-Trp-Lys-Lys-NH2
T1 sequence: RRMKWKK

[2] = system: T2, 4-[Succinimidopropionoyl-(H-Cys-βAla-Arg-Arg-Met-Lys-Trp-Lys-Lys-NH2)]podophyllotoxin
T2 sequence: CRRMKWKK

[3] = system: T3, 4′-Demethyl-4-[acetyl-(H-Cys-βAla-Arg-Arg-Met-Lys-Trp-Lys-Lys-NH2)]epipodophyllotoxin
T3 sequence: CRRMKWKK

[4] = system: T4, 4′-Demethyl-4-[4″-aminoanilino-(succinimidopropionoyl)-(H-Cys-bAla-Arg-Arg-Met-Lys-Trp-Lys-Lys-NH2)]-epipodophyllotoxin
T4 sequence: CRRMKWKK

[5] = system: T5, 4-[Succinimidopropionoyl-(H-Cys-βAla-Arg-Arg-Met-Lys-Trp-Lys-Lys-NH2)]epipodophyllotoxin
T5 sequence: CRRMKWKK

purified recombinant human topoisomerase II
Activity observed (topoisomerase II cleavage and relaxation assays on plasmid DNA) [1]: -
Activity observed (topoisomerase II cleavage and relaxation assays on plasmid DNA) [2]: -
Activity observed (topoisomerase II cleavage and relaxation assays on plasmid DNA) [3]: IC
Activity observed (topoisomerase II cleavage and relaxation assays on plasmid DNA) [4]: I
Activity observed (topoisomerase II cleavage and relaxation assays on plasmid DNA) [5]: IC
